Data reported in paper doi:10.1101/343368.

Legend:
Experiment in all cases: GO/AuNP colorimetric aptasensor
beta-lactoglobulin = target: T1, beta-lactoglobulin (milk (species ), UniProt P02754 17-178)
T1 sequence: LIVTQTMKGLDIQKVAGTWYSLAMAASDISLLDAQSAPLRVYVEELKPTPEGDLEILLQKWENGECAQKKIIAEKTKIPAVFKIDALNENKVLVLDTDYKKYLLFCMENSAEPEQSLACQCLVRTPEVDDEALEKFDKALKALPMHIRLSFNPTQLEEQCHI

tropomyosin (Pen a 1) = tropomyosin (Pen a 1) (shrimp (species ), UniProt Q3Y8M6 1-284)
arachin (Ara h 1) = target: T2, arachin (Ara h 1) (peanut, UniProt P43238 85-626)
T2 sequence: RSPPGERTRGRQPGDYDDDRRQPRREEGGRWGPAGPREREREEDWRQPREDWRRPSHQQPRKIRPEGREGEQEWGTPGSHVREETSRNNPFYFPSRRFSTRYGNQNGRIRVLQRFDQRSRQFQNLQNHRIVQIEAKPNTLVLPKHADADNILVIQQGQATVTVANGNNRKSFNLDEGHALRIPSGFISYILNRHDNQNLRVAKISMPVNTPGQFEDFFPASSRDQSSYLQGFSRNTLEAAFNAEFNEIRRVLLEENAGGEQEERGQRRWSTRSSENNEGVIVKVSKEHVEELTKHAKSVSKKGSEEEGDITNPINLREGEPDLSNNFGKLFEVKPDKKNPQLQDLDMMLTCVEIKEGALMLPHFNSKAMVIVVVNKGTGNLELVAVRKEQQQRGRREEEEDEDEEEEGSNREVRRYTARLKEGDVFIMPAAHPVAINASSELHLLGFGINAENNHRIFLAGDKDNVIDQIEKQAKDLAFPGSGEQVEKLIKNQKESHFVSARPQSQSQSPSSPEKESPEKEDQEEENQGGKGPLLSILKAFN

tropomyosin (Pen a 1), sequence (Q3Y8M6 whole entry): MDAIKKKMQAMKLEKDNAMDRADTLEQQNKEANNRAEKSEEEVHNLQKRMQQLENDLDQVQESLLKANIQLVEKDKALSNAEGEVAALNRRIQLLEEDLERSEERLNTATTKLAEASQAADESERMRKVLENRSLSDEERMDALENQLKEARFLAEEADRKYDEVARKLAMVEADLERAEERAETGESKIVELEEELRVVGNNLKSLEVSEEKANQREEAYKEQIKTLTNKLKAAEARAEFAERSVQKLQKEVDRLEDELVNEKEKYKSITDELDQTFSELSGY

B1: beta-lactoglobulin (milk) aptamer (ssDNA)
DNA: ATACCAGCTTATTCAATTCGACGATCGGACCGCAGTACCCACCCACCAGCCCCAACATCATGCCCATCCGTGTGTGAGATAGTAAGTGCAATCT
modifications: biotin (position not given)
beta-lactoglobulin
  binding result: binds

B2: tropomyosin (shrimp) aptamer (ssDNA)
DNA: TACTAACGGTACAAGCTACCAGGCCGCCAACGTTGACCTAGAAGCACTGCCAGACCCGAACGTTGACCTAGAAGC
modifications: biotin (position not given)
Tropomyosin (Pen a 1)
  binding result: binds

B3: arachin (peanut) aptamer (ssDNA)
DNA: TCGCACATTCCGCTTCTACCGGGGGGGTCGAGCGAGTGAGCGAATCTGTGGGTGGGCCGTAAGTCCGTGTGTGCGAA
modifications: biotin (position not given)
Arachin (Ara h 1)
  binding result: binds
